Source: publication PMC6221367, “A dual regulatory circuit consisting of S-adenosylmethionine decarboxylase protein and its reaction product controls expression of the paralogous activator prozyme in Trypanosoma brucei” (PLoS Pathogens, 2018)

Legend:
[1] = substrate: CSCC[C@H](N)C(=O)O; experiment: coupled spectroscopic assay of pyrophosphate release (A340); format: biochemical, Trypanosoma brucei; conditions: 150 nM enzyme, co-substrate ATP, 5 mM MgSO4 and 100 mM KCl in 50 mM HEPES assay buffer, pH 8.0, 37 °C, parenthesis = 95% CI
Text: (§1) coupled spectroscopic assay of pyrophosphate release (A340) on TbAdoMetSyn

[2] = substrate: Nc1ncnc2c1ncn2[C@@H]1O[C@H](COP(=O)(O)OP(=O)(O)OP(=O)(O)O)[C@@H](O)[C@H]1O; experiment: as above; format: biochemical, Trypanosoma brucei; conditions: 150 nM enzyme, co-substrate methionine, 5 mM MgSO4 and 100 mM KCl in 50 mM HEPES assay buffer, pH 8.0, 37 °C, parenthesis = 95% CI
Text: as §1

B1: TbAdoMetSyn (Trypanosoma brucei brucei TREU927) (protein)
chain: MSVRQIFFTSEHVSEGHPDKLCDQVSDAVLDACLEQDPLSKVACETCSKTGMVLVFGEITTKAVIDYQKVVRDTVKEIGFDNTEKGLDYRSLNLLVAVEQQSPDIYQGLGDFGGENLGAGDQGMMFGYATNETETLMPLSYELARGLAMTYSELRRNGGLPWARPDAKTQVTVQYEYDTRGGKQLLTPKRVAVILVSAQLDDGVSNETIREDLVKKVISTTIPAKFLDENTKYHLNPSGRFVIGGPHGDAGLTGRKIIVDTYGGWGAHGGGAFSGKDPSKVDRSAAYAARWIAKSLVAAGLADRCLVQLSYAIGVAEPLNIHVDTYGTGKRDDEYILGIVQKNFRLRPYDIIKELDLRRPIYRQTACFGHFGRVDTNGKGGFTWEVPKTLEGLSDVQ
notes: E. coli BL21(DE3); His6-tag removed by TEV protease
[1]
  Km: 0.031 (0.025–0.039) mM
  kcat: 0.19 s⁻¹
[2]
  Km: 0.31 (0.24–0.40) mM
  kcat: 0.21 s⁻¹
